Data on two molecules can be found in patent CN113861292A (BIO THERA SOLUTIONS LTD, dated 2021).

In test [1] the target is T1, 人CD40 (human, UniProt P25942 21-277).
T1 construct: whole, on cells; also called hCD40; CD40 on Daudi cells
In words: flow cytometry (MFI) on HT1080-hCD40 cells. A general note: Flow cytometry measures light scatter and fluorescence of single cells or particles in a stream.

Test [2] addresses T1, 人CD40. Put plainly: flow cytometry (MFI) on Daudi cells expressing CD40.
In the next test the target is T2, mCD40-his(小鼠CD40) (小鼠 (mouse), UniProt P27512 24-193, limits assumed).
T2 construct: Bought His-tagged protein; also called 小鼠的CD40
T2 sequence (looked up): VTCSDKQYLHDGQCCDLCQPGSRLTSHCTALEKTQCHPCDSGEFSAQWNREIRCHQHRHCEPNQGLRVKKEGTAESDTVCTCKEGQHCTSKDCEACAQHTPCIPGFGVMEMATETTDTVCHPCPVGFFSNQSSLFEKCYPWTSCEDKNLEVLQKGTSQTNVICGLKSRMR
Put plainly: ELISA, 2 μg/ml mCD40-his coated, HRP second antibody. A general note: ELISA stands for enzyme-linked immunosorbent assay.

A word on the EC50: it is the concentration that produces a half-maximal response.

T1 sequence (P25942 21-277): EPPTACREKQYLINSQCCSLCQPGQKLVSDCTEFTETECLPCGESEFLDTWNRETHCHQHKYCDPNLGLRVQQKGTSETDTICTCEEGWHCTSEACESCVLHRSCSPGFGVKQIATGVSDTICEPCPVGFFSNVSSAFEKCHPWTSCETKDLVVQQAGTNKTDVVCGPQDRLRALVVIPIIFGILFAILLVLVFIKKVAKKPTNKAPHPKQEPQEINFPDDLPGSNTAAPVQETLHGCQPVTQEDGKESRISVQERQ

B1: 抗体25 (antibody, human IgG1, kappa, V domains shown)
VH: EVQLVESGGGLVQPGGSLRLSCAASGFSFGTYAMSWVRQAPGKGLEWVSGIDSGTGNPFYADSVKGRFTISRDNSKNTLYLQMNSLRAEDTAVYYCARALYYTGFYRPLDYWGQGTLVTVSS
VL: DIQMTQSPSSLSASVGDRVTITCRASQGISSYLAWYQQKPGKAPKLLIYAASSLQSGVPSRFSGSGSGTDFTLTISSLQPEDFATYYCQQHYTTPPTFGQGTKVEIKR
notes: also called antibody 25; 抗CD40抗体
Consider B1, for which the EC50 in the test with 人CD40 [1] was found to be 0.593 µg/mL; with 人CD40 [2], 0.414 µg/mL. The binding result with mCD40-his(小鼠CD40) was “no binding”.

B2: APX005 (antibody, V domains shown)
VH: QVQLVESGGGVVQPGRSLRLSCAASGFSFSSTYVCWVRQAPGKGLEWIACIYTGDGTNYSASWAKGRFTISKDSSKNTVYLQMNSLRAEDTAVYFCARPDITYGFAINFWGPGTLVTVSS
VL: DIQMTQSPSSLSASVGDRVTIKCQASQSISSRLAWYQQKPGKPPKLLIYRASTLASGVPSRFSGSGSGTDFTLTISSLQPEDVATYYCQCTGYGISWPIGGGTKVEIK
B2: the EC50 in the test with 人CD40 [1] was determined as 0.995 µg/mL; with 人CD40 [2] it was 0.86 µg/mL.
